The target of assay [1] is T1, DNAJC3 (human, UniProt Q13217 32-504).
T1 construct: also called NP_006251.1 (+4)
T1 sequence (looked up): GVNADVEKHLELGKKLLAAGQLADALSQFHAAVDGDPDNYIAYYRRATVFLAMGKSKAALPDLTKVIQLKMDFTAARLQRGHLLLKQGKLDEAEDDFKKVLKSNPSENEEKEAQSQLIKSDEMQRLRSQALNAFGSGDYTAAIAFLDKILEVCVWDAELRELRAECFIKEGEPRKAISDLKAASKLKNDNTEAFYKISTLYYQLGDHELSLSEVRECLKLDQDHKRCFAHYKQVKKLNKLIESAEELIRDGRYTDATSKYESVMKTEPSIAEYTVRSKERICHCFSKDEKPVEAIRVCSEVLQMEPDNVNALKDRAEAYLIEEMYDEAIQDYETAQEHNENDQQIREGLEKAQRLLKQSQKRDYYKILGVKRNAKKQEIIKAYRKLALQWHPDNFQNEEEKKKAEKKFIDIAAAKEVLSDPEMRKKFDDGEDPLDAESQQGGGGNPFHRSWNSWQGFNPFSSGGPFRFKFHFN
The assay is described as follows: co-IP, anti-FLAG, lysate of cells with N-FLAG B3GNT2; mass spectrometry.

Assay [2] deals with T2, DDX5 (human, UniProt P17844 1-614).
T2 construct: also called NP_001307526.1
T2 sequence (P17844 whole entry): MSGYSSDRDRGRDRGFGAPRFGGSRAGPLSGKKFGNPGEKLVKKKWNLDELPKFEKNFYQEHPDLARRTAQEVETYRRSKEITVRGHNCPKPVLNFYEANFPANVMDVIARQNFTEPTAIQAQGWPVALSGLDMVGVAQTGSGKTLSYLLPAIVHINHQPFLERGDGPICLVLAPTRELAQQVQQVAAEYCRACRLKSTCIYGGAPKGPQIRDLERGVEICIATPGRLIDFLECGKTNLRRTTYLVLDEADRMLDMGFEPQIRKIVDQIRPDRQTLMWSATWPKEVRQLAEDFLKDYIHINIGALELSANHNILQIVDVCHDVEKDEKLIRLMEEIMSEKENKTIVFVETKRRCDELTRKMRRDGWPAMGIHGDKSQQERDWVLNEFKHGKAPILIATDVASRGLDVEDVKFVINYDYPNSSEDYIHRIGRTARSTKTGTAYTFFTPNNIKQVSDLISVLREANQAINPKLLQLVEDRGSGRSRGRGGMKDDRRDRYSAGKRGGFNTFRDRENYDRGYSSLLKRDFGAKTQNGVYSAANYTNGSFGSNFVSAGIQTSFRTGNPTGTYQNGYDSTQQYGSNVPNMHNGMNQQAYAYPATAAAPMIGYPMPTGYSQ
Described as above.

Assay [3] has as its target T3, TAF15 (human, UniProt Q92804-2 1-589, limits assumed).
T3 construct: Identified by mass spectrometry in the co-IP; also called NP_003478.1 (+1)
The assay is described as follows: co-IP with mouse anti-FLAG from lysate of cells overexpressing N-FLAG B3GNT2, then mass spectrometry. How it is done: (§1) Cells were plated in 10-cm cell culture dishes and grown to 60-80% confluency. For each condition, two biological replicates were harvested for co-IP. Cells were washed with PBS and 4 mL of lysis buffer (20 mM HEPES, 1% Triton X-100, 150 mM NaCl, 1 mM EDTA, and 10% glycerol) containing protease inhibitor cocktail was added. Cells were scraped and lysate was incubated at 4° C. under rotary agitation for 1 h. Lysate was centrifuged at 14,000×g for 10 min at 4° C. Supernatant was transferred to a new tube and an aliquot was taken as the input. […] For Western blots, 10 μg/mL Chicken Anti-FLAG (Aves labs ET-DY100) and IgY control (R&D Systems AB-101-C) antibodies were biotinylated (Thermo Fisher Scientific 90407) and added to the respective conditions. Lysates with antibodies were incubated at 4° C. under rotary agitation overnight. For each mL of lysate, 50 μL of Pierce Protein A/G Magnetic Beads (Mass spectrometry; Thermo Fisher Scientific 88803) or Pierce Streptavidin Magnetic Beads (Western blot; Thermo Fisher Scientific 88817) was washed twice with lysis buffer. Lysates with antibodies were added to the beads and incubated at 4° C. under rotary agitation for 4 h. Beads were washed with lysis buffer 3 times and resuspended in lysis buffer for storage.
(§2) Magnetic beads were resuspended in 100 mM Tris pH 7.8, reduced, alkylated and digested with trypsin at 37° ° C. overnight. This solution was subjected to solid phase extraction to concentrate the peptides and remove unwanted reagents followed by injection onto a Shimadzu HPLC with fraction collector. Eight fractions were collected and after concentration were injected on a Waters NanoAcquity HPLC equipped with a self-packed Aeris 3 μm C18 analytical column 0.075 mm by 20 cm, (Phenomenex). Peptides were eluted using standard reverse-phase gradients. The effluent from the column was analyzed using a Thermo Orbitrap Elite mass spectrometer (nanospray configuration) operated in a data dependent manner for 54 minutes. The resulting fragmentation spectra were correlated against the known database using Proteome Discover 1.4 (Thermo Fisher Scientific).

The target of assay [4] is T4, KHDRBS1 (human, UniProt Q07666 1-443).
T4 construct: Identified by mass spectrometry in the co-IP; also called NP_006550.1
T4 sequence (Q07666 whole entry): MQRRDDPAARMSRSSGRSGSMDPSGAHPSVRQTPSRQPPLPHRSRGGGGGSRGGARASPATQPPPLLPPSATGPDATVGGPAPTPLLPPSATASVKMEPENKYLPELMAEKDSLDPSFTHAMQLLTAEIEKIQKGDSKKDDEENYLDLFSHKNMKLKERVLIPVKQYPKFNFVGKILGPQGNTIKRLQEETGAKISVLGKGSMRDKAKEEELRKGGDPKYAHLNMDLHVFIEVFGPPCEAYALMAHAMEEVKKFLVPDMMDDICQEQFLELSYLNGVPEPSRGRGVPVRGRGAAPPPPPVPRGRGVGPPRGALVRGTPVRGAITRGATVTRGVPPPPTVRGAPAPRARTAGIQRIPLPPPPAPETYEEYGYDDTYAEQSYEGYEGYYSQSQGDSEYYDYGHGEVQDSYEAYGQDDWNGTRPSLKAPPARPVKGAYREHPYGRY
The assay is described as above. Here is the method:
as §1, §2

Assay [5] concerns the target T5, VIM (human, UniProt P08670 2-466).
T5 construct: Identified by mass spectrometry in the co-IP; also called NP_003371.2
The description is as above. Here is the method:
as §1, §2

Assay [6] has as its target T6, TCP1 (human, UniProt P17987 1-556).
T6 construct: Identified by mass spectrometry in the co-IP; also called NP_110379.2
The description is as above. Here is the method: as §1, §2

For assay [7], the target named is T7, SUPT16H (human, UniProt Q9Y5B9 2-1047).
T7 construct: Identified by mass spectrometry in the co-IP; also called NP_009123.1 (+1)
T7 sequence (Q9Y5B9 2-1047 limits assumed): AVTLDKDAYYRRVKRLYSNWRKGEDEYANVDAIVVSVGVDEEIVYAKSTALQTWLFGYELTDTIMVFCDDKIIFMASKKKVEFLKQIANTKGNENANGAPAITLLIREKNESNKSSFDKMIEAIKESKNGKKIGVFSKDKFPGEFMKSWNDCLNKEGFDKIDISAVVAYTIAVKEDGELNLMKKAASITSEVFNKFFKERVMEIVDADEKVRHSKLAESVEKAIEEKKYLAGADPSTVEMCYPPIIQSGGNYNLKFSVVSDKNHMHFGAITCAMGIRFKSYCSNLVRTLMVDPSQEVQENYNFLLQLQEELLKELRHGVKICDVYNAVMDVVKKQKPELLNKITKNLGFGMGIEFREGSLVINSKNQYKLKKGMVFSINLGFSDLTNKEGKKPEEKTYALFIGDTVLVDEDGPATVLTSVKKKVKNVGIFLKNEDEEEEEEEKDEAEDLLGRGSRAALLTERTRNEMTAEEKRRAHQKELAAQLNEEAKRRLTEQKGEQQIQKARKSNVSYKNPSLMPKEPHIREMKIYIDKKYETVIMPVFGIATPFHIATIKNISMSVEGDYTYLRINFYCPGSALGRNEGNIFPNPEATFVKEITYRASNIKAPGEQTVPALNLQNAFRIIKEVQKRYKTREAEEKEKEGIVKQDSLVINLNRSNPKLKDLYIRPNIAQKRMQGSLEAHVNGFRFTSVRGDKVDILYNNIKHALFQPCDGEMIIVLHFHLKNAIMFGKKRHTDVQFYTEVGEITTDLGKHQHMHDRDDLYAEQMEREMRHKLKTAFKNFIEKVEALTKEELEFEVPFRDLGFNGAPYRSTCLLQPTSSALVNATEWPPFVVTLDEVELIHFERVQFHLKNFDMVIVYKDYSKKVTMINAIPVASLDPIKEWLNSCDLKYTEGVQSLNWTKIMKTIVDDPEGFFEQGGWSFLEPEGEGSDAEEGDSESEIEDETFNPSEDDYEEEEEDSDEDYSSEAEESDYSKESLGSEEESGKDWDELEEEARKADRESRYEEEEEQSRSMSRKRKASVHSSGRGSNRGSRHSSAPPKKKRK
Described as above. Here is the method:
as §1, §2

In assay [8] the target is T8, PABPC1 (human, UniProt P11940 1-636).
T8 construct: Identified by mass spectrometry in the co-IP; also called NP_002559.2
T8 sequence (P11940 whole entry): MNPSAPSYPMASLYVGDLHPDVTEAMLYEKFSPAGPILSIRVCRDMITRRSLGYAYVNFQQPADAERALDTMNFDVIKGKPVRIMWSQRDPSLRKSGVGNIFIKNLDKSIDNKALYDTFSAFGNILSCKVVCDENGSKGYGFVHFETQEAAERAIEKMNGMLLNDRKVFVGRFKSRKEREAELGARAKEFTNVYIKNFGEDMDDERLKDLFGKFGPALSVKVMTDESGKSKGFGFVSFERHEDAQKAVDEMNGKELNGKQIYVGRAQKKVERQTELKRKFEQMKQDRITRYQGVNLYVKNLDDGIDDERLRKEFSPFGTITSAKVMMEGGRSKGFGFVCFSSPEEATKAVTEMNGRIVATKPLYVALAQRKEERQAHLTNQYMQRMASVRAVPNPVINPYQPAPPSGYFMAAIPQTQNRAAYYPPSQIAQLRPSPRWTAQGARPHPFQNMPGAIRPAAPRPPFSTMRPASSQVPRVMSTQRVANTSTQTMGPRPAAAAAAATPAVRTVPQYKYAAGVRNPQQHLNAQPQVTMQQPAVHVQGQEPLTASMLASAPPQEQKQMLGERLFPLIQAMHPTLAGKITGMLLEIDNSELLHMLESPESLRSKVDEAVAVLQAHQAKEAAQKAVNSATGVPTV
The description is as above. Here is the method:
as §1, §2

The target in assay [9] is T9, CPSF6 (human, UniProt Q16630-2 1-588, limits assumed).
T9 construct: Identified by mass spectrometry in the co-IP; also called NP_001287876.1 (+3)
T9 sequence (looked up): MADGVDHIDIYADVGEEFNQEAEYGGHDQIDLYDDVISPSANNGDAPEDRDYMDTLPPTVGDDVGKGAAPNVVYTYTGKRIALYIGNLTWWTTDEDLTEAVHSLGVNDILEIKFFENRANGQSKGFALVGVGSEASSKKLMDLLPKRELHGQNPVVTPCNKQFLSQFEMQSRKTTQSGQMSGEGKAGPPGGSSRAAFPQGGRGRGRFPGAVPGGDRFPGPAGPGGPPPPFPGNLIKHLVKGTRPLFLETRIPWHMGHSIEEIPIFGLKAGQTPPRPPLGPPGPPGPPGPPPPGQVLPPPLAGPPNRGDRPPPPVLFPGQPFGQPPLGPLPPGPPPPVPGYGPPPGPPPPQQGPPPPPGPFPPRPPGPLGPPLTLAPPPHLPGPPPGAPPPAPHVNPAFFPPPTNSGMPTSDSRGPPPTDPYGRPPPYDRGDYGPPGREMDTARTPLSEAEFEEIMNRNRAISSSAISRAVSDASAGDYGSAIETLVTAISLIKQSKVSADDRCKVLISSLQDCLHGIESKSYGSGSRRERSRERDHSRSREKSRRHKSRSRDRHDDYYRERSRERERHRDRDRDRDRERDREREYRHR
The assay is described as above. Here is the method:
as §1, §2

T6 sequence (P17987 whole entry): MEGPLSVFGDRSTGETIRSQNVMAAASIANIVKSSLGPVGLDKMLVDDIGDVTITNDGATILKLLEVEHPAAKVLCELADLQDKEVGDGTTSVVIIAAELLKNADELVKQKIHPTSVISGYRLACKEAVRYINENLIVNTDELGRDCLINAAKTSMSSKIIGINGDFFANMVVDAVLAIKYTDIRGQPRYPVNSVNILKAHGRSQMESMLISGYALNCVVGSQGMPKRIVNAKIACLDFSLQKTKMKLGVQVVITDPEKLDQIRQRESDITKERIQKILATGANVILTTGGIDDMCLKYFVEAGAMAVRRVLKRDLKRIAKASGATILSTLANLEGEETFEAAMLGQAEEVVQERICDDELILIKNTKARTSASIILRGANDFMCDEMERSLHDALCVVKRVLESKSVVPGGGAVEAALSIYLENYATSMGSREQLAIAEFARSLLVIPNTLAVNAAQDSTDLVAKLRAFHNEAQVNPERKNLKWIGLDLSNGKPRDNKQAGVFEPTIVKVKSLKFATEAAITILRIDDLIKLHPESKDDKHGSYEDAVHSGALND
T5 sequence (P08670 2-466 limits assumed): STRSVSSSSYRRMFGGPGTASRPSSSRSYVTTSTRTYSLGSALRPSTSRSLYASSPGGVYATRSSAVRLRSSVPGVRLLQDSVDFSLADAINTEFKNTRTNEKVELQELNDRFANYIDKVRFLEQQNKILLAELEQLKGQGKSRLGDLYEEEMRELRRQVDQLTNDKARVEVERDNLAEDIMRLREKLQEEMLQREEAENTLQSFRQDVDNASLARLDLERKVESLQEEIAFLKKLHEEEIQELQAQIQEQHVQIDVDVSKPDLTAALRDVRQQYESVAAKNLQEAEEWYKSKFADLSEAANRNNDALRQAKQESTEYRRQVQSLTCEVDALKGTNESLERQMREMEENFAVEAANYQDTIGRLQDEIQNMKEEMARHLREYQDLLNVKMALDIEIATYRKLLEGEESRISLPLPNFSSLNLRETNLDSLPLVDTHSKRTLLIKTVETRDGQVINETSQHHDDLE
T3 sequence (Q92804 other isoform, or with tags, fused parts or gaps limits assumed): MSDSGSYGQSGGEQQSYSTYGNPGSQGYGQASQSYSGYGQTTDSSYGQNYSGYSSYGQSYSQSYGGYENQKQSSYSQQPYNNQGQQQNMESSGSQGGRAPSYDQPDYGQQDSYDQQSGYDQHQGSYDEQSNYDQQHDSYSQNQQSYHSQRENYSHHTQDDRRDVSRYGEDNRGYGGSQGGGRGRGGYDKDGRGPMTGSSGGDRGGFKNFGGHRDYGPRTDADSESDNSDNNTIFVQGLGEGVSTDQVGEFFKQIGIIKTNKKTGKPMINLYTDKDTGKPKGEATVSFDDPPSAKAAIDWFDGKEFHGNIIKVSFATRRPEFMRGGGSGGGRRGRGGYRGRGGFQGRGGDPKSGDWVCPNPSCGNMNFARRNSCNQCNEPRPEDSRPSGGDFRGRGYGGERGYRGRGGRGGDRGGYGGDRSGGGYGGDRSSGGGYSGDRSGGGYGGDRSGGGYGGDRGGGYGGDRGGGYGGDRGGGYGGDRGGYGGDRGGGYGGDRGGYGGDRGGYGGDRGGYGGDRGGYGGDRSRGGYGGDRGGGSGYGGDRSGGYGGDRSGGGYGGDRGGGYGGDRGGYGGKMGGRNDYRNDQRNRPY

B1: N-terminal FLAG tagged B3GNT2 (enzyme, human, UniProt Q9NY97 1-397, looked up)
chain: MSVGRRRIKLLGILMMANVFIYFIMEVSKSSSQEKNGKGEVIIPKEKFWKISTPPEAYWNREQEKLNRQYNPILSMLTNQTGEAGRLSNISHLNYCEPDLRVTSVVTGFNNLPDRFKDFLLYLRCRNYSLLIDQPDKCAKKPFLLLAIKSLTPHFARRQAIRESWGQESNAGNQTVVRVFLLGQTPPEDNHPDLSDMLKFESEKHQDILMWNYRDTFFNLSLKEVLFLRWVSTSCPDTEFVFKGDDDVFVNTHHILNYLNSLSKTKAKDLFIGDVIHNAGPHRDKKLKYYIPEVVYSGLYPPYAGGGGFLYSGHLALRLYHITDQVHLYPIDDVYTGMCLQKLGLVPEKHKGFRTFDIEEKNKNNICSYVDLMLVHSRKPQEMIDIWSQLQSAHLKC
notes: Overexpressed in cells and pulled down from the lysate with mouse anti-FLAG antibody; also called N-FLAG B3GNT2; N-term FLAG; not shown: N-terminal FLAG tag
As for B1, the “co-IP mass spectrometry count” value in assay [1] amounted to 0; in assay [2], 16.

B2: N-terminal FLAG tagged B3GNT2 (enzyme, human, UniProt Q9NY97 1-397, looked up)
chain: B1 chain
notes: FLAG-tagged ORF overexpressed in A375 cells; bait of the co-IP with mouse anti-FLAG; also called N-FLAG B3GNT2; N-term FLAG; not shown: N-terminal FLAG tag
Turning to B2, the “co-IP mass spectrometry count (N-term FLAG)” value in assay [3] was determined as 5; in assay [4], 9; in assay [5], 402; in assay [6] it was 0; in assay [7], 0; in assay [8] it was 31. The “co-IP mass spectrometry count (N-term FLAG)” value in [9] was 30.

The record behind these values is US20240261333A1 (published 2024).
